Measured values from the supplement of paper PMC9170038.

System: MS2 coat protein
Assay: apparent KD of MS2 coat protein; designed switch direction (-1 OFF switch, 1 ON switch): -1; higher = weaker reporter binding
Outline: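 Designed RNA switches sharing common flanks were transcribed on Illumina chips by stalled E. coli RNA polymerase. They were titrated with SNAP-549-labelled MS2 coat protein, from 0.7 or 1.5 nM doubling to 3 µM, in Tris-HCl pH 7.5 buffer with KCl, MgCl2, BSA, DTT, tRNA and Tween-20. Titrations ran without input, with 200 uM small-molecule ligand, or with an oligonucleotide input. The apparent KD of each design is the median over its clusters, after curve-fitting of normalised cluster fluorescence.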

[1] = input ligand: microRNA oligo, concentration not stated
[2] = Eterna round: R95, input ligand: microRNA oligo, concentration not stated
[3] = Eterna round: R95, input ligand: FMN 200 uM
[4] = Eterna round: R95, input ligand: none

Sequence	apparent KD of MS2 coat protein (input ligand: FMN 200 uM) [nM]	apparent KD of MS2 coat protein (input ligand: none) [nM]	apparent KD of MS2 coat protein [1] [nM]	apparent KD of MS2 coat protein [2] [nM]	apparent KD of MS2 coat protein [3] [nM]	apparent KD of MS2 coat protein [4] [nM]
UAAUAUCUGUAGGAUAUCAGUGGAAAACACGUAUGAGAAGGGCAGACAUGAGGAUCACCCAUGUAUAGGGUCCG [BotMod 7 - Jieux - Exclusion 6] (Eterna round: R97, puzzle: Exclusion 6)	61.9	20.9				
GCACGAAGUGUAGGAUAUCUGUGCGAUUAGCUCAGAGAAGGACACAUGAGGAUCACCCAUGUUUUCCACGGAUAGCAAACGUGC [Eli exng1 - 059] (Eterna round: R96, puzzle: Exclusion NG 1)	21	19.6	14.4			
UACAUGAGGAUCACCCAUGUUUUGUCGUGUAUGGUAUUUAUCUAGGAUAUCAAUGUAAUUAUUUAUGAGAAGGAGAAUAUUAAU [JMF's solution 40] (Eterna round: R96, puzzle: Exclusion NG 3)	41.2	44.7	36.1			
CAGUACUGAGGAUAUACAUGAGGAUCACCCAUGUGCACCAGCUAGGAAACUAGCAAAAGUAGAAGGCAGUACUG [828 mod 2 m9] (Eterna round: R97, puzzle: Exclusion 3)	112	15.5				
ACAUGUCAUCGAGGAUAUUGGACACAUGAGGAUCACCCAUGUACUCGGAUGCUCUACCAUGAGUUCGAGAAGGCGAUGUACAUU [Ex NG2 #78] (Eterna round: R96, puzzle: Exclusion NG 2)	31.9	181	94.3			
UAAAAGUUAGGAUAUACAUGAGGAUCACCCAUGUCGCGGAACCGCGGCGAUUACUCCUGUAGAAGGAACAUCGU [Ribeat] (puzzle: Exclusion 3)				125		
CUUUUGUGAGGAUAUCAGUAGUAAAUAAAUAAAAUAACUACUGAGAAGGCACAUGAGGAUCACCCAUGUUCCUC [Mat - Exclusion 4 - Mod of Salish - D69] (puzzle: Exclusion 4)				38.6		
UCCGUACAUGAGGAUCACCCAUGUCAGGAUAUGGCUUUUAGCGUAGACGCGCAAGAGGCCAGAAGGGACUUUUG [Eternabot (L2) Solution 6] (Eterna round: R97, puzzle: Exclusion 1)	30.5	27.7				
UUUAAUUUUUUUUUUUUACAAGCUUUUUGCUCGUCUUAUACAUGAGGAUCACCCAUGUGGGUGAGAAAUGAAUUAUC [JMF 93] (puzzle: Sensor v3, turn-off variant 2)				10.2	59.9	76.8
UAGGGUAAGUCAUGUACGAACAUGAGGAUCACCCAUGUAGCUGAAAUAAACCUCGUCCAAAUCUUUCCGUAAAAUGU [Zavein] (Eterna round: R96, puzzle: Sensor v2, turn-off variant)	271	295	211			
AAGAAGAUCAAAGGAUAUGGAGCUGAAACGGCGCUAGAAGGUUGUCUAGUGUAACAUGAGGAUCACCCAUGUAGGUACCUCUAA [AK ExNG1-V2-1.1] (Eterna round: R96, puzzle: Exclusion NG 1)	730	847	376			
CUGGUCCGAGGAUAUAUUAUGUGAAACAUGAGGAUCACCCAUGUAAUAUGAUGGAUGUAAAUAGAAGGCGGACUAG [JL-ex5-3.07] (puzzle: Exclusion 5)				37.3	38.2	47.2
GUGCCACAUGAGGAUCACCCAUGUGAGGAUAUGGCCUGUUUGGCGUGUGCUGGCUCUGUCAGAAGGCGCGUGGG [salish99_ex1_r4_037] (Eterna round: R97, puzzle: Exclusion 1)	39.1	26.8				
AAGUCGAGCGUGAGGAUAUCGUUCGAACGACCGAACGAGAAGGCACAUGAGGAUCACCCAUGUGAUUCAGCUCA [Brourd's EX4 #47] (Eterna round: R97, puzzle: Brourd's mod of Exclusion 4)	93.6	19.7				
AAGGAAAAGUGAGGAUAUGGAAAUUUGGUGAUAACAUGAGGAUCACCCAUGUGAAAACAAUAAAAUUAGAAGGUAUAAAGAAAA [AK ExNG2-1.1] (Eterna round: R96, puzzle: Exclusion NG 2)	120	107	66.7			
AAAAUAAAAAUAAACAAGCACAUGAGGAUCACCCAUGUUCGUCUUAUAAAAAUAAAAAUAAAAAACAAAAAAUAAAA [Sensor V2: 48] (Eterna round: R96, puzzle: Sensor v2, turn-off variant)	19	20.6	29.6			
GCGGAGUAUGUAGGAUAUCGGUCAGUUUCUGAUCGAGAAGGACAUGAGGAUCACCCAUGUAAAUUCCUCGCUUUGUGAGGCCGC [JL ENG1 3.65] (Eterna round: R96, puzzle: Exclusion NG 1)	21.6	17.1	12.8			
AUAUAGAUGGUCAGGAUAUGCUAGUGGUAACAGUAGCAGAAGGGACAUGAGGAUCACCCAUGUAGAUCCUGCUC [Brourd's EX4 #13] (Eterna round: R97, puzzle: Brourd's mod of Exclusion 4)	33.5	21.1				
AAUUCCAAGCUCAACGUUCACAUGAGGAUCACCCAUGUCAUGAGCUGUUAUAAGUUCGGAUGUUAUAUUUUGCUCGU [Eternabot (L2) Solution 12] (Eterna round: R97, puzzle: Sensor, turn-off variant 1)	14.6	15				
GCAAGUUUUUUGUUUUUUAACAUGAGGAUCACCCAUGUGCGGUUAUAGUGUGUGUGAUUAGGAUCUUGUGGUCUUAG [JR_SV3TOV1_Sub102] (puzzle: Sensor v3, turn-off variant 1)				123	67.8	98.9
UUUUUAUAUGAAGGAUAUACUUAACAUGAGGAUCACCCAUGUGGUGUUGUGAGUGAGAGAGUUUAGUAGAAGGUCAAUUAUUUU [JMF's solution 5] (Eterna round: R96, puzzle: Exclusion NG 2)	714	300	280			
UUUCCUUGUGUGAGGAUAUACUUGUUUGUGUUUUUGUAGAAGGCACAUGAGGAUCACCCAUGUACUCUUUCCUG [JR_BME4_Sub023] (puzzle: Brourd's mod of Exclusion 4)				34.2		
AUUGUUUAUGUAGGAUAUGCCUGGCGUGCCUUUGCAGAAGGACAUGAGGAUCACCCAUGUAACAUGAGGCUCACCCUUGUCGCA [salish99_ExNG1_r04_114] (Eterna round: R96, puzzle: Exclusion NG 1)	147	95.5	81.4			
UUUGGGUCAGGAUAUUGUUAGUUUAGUUGUUUGUAUUAGUUCGAGAAGGGACAUGAGGAUCACCCAUGUGGUUU [Ex4 #78] (Eterna round: R97, puzzle: Exclusion 4)	81.4	85.3				
UCGGCGCGAGGAUAUGCGGUUGCUUGGUAGGGUCGUGGCGUACAUGAGGAUCACCCAUGUAGAAGGCGCGCCGC [Apr-15 SS2-32*] (puzzle: Exclusion 2)				15.5		
